PMC7337524, “Mammalian Nudix proteins cleave nucleotide metabolite caps on RNAs” (Nucleic Acids Research, 2020)

Molecular target: the molecule itself
Experiment: crystal structure; crystals of free human Nudt16 (2.3 Å, with 100 mM MES pH 5.5) and of Nudt16 incubated with 5 mM FAD (2.7 Å); sitting drop at 20°C, 0.2 M ammonium chloride, 20% PEG 3350

B1: human Nudt16 (residues 1-184) (enzyme, UniProt Q96DE0 1-184, looked up)
chain: MAGARRLELGEALALGSGWRHACHALLYAPDPGMLFGRIPLRYAILMQMRFDGRLGFPGGFVDTQDRSLEDGLNRELREELGEAAAAFRVERTDYRSSHVGSGPRVVAHFYAKRLTLEELLAVEAGATRAKDHGLEVLGLVRVPLYTLRDGVGGLPTFLENSFIGSAREQLLEALQDLGLLQSG
notes: Nudt16, human, residues 1-184, cloned into a modified pET28a vector; Seen as a dimer in both crystal forms, free and with FAD; PDB 3COU is the cited search model for molecular replacement; also called free human Nudt16; source: E. coli BL21(DE3), purified (Ni-NTA, UlpI cleavage, heparin column, Sephacryl S-200); not shown: His6, N-terminal, cleaved; yeast SMT3 SUMO, N-terminal, cleaved
B1: binds.
